Measurements taken from US20110200629A1.

Target: T1, HLA-A0201 (human), P04439
T1 chain: not shown

B1: murine H-2 Kb binding peptide VSV8 (RGYVYQGL, SEQ ID NO:6) (peptide)
peptide: RGYVYQGL
modifications: not checked
% MFI increase: 5.6%
